Targets include hERG-P596A (human) (UniProt Q12809); hERG-N588A (human) (UniProt Q12809); hERG-Y597A (human) (UniProt Q12809); hERG-D591A (human) (UniProt Q12809); hERG-S631A (human) (UniProt Q12809); hERG-N598A (human) (UniProt Q12809); hERG-Q592A (human) (UniProt Q12809); hERG-L586A (human) (UniProt Q12809); hERG-K610A (human) (UniProt Q12809); hERG-T613A (human) (UniProt Q12809); hERG-K595A (human) (UniProt Q12809); hERG-K608A (human) (UniProt Q12809); hERG-H587A (human) (UniProt Q12809); hERG-S600A (human) (UniProt Q12809).

The target of experiment [1] is human ether-a-go-go-related gene potassium channel (hERG), wild type (human) (UniProt Q12809).
In experiment [2] the target is hERG-I583A (human) (UniProt Q12809).
The target of experiment [3] is hERG-R582A (human) (UniProt Q12809).
Experiment [4] addresses hERG-I583A (human) (UniProt Q12809). The source holds these as a separate data set.
The target in experiment [5] is hERG-R582A (human) (UniProt Q12809). The source holds these as a separate data set.
The target of experiment [6] is human ether-a-go-go-related gene potassium channel (hERG), wild type (human) (UniProt Q12809). The source holds these as a separate data set.

One substance from article PMC4108063 can be followed below.

Like-named read-outs stand apart in the source and are kept apart here.

As to scorpion toxin BmKKx2 (peptide), the IC50 (half-maximum inhibition concentration) of hERG channel currents, whole-cell patch clamp on transfected HEK293 cells in experiment [1] was determined as 26.7 nM; in [6], 6.7 nM. The percent of mutant hERG channel currents inhibited by 100 nM BmKKx2, whole-cell patch clamp with hERG-I583A (human) [2] and with hERG-R582A (human) [3] was 70% each time. Besides, the IC50 (half-maximum inhibition concentration) of mutant hERG channel currents, whole-cell patch clamp on transfected HEK293 cells with hERG-P596A (human) worked out at 60.8 nM; in the experiment with hERG-N588A (human) it was 14.5 nM; with hERG-Y597A (human), 118 nM; in the experiment with hERG-D591A (human), 19.6 nM; with hERG-S631A (human), 698 nM; in the experiment with hERG-N598A (human), 15.2 nM. Further, the IC50 (half-maximum inhibition concentration) of mutant hERG channel currents, whole-cell patch clamp on transfected HEK293 cells came to 89.5 nM in the experiment with hERG-Q592A (human); 87.5 nM in the experiment with hERG-I583A (human) [4]; 76.5 nM with hERG-R582A (human) [5]; 24.3 nM with hERG-L586A (human); 6.7 nM with hERG-K610A (human); 42.6 nM with hERG-T613A (human). Moreover, the IC50 (half-maximum inhibition concentration) of mutant hERG channel currents, whole-cell patch clamp on transfected HEK293 cells with hERG-K595A (human) is 65.2 nM; with hERG-K608A (human), 116 nM; in the experiment with hERG-H587A (human) it was 59.7 nM; in the experiment with hERG-S600A (human) it was 12.1 nM.
